Experimental data published in PMC11061317.

Target: GST-tagged Rheb-G63V expressed in HEK293T (UniProt Q15382)
Experiment: GST pull-down and immunoblotting, band intensity quantified
Details: HEK293T cells, transient co-expression; mean ± SEM (n = 3); parent: est. 1.0; read off a plot

Sequence of GST-tagged Rheb-G63V expressed in HEK293T (Q15382 whole entry G63V): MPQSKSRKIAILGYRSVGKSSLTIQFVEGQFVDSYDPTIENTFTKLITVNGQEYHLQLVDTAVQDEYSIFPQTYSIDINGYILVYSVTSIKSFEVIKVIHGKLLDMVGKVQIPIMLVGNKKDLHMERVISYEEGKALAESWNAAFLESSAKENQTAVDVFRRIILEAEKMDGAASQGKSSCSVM
Sequence of SFB-tagged ATP6AP1 (wild type, full length) (Q15904 42-470 I469del/V470del): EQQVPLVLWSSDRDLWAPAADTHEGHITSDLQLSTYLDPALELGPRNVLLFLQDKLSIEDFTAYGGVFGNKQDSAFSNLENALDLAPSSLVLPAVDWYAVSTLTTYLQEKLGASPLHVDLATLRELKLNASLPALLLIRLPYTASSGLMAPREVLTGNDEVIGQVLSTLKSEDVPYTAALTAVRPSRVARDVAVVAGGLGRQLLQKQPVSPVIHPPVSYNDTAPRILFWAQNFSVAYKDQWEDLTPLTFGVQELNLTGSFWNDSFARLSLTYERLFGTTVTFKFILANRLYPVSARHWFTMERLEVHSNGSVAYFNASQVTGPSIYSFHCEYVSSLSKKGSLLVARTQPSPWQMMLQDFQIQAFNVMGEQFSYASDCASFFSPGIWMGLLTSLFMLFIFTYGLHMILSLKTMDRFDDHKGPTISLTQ

ratio to parent (relative to ATP6AP1): 0.77
Substance: SFB-tagged ATP6AP1 (wild type, full length) (from UniProt Q15904) I469del; V470del
